Test results from US20210388053A1.
Residue numbers refer to the chain shown, from its start. In names and notes the source's numbering stands. Several values for one entry are separate records, joined by “and”; a condition that tells them apart may be missing. Identical values can stand only once.

B1: wild-type canine IgG-B Fc polypeptide (protein, not shown: small tags and cut ends)
chain: CPAPEMLGGPSVFIFPPKPKDTLLIARTPEVTCVVVDLDPEDPEVQISWFVDGKQMQTAKTQPREEQFNGTYRVVSVLPIGHQDWLKGKQFTCKVNNKALPSPIERTISKARGQAHQPSVYVLPPSREELSKNTVSLTCLIKDFFPPDIDVEWQSNGQQEPESKYRTTPPQLDEDGSYFLYSKLSVDKSRWQRGDTFICAVMHEALHNHYTQESLSHSPGK
B2: variant canine IgG-B Fc polypeptide 0YY (Gln83Tyr, Asn208Tyr) (protein, not shown: small tags and cut ends)
chain: B1 chain with Q83Y, N208Y
B3: variant canine IgG-B Fc polypeptide Y0R (Leu24Tyr, Asn208Arg) (protein, not shown: small tags and cut ends)
chain: B1 chain with L24Y, N208R
B4: variant canine IgG-B Fc polypeptide YYH (Leu24Tyr, Gln83Tyr, Asn208His) (protein, not shown: small tags and cut ends)
chain: B1 chain with L24Y, Q83Y, N208H
B5: variant canine IgG-B Fc polypeptide YYR (Leu24Tyr, Gln83Tyr, Asn208Arg) (protein, not shown: small tags and cut ends)
chain: B1 chain with L24Y, Q83Y, N208R
B6: YTE variant canine IgG-B Fc polypeptide (Leu24Tyr, Ala26Thr, Thr28Glu) (protein, not shown: small tags and cut ends)
chain: B1 chain with L24Y, A26T, T28E
B7: variant canine IgG-B Fc polypeptide 0YF (Gln83Tyr, Asn208Phe) (protein, not shown: small tags and cut ends)
chain: B1 chain with Q83Y, N208F
B8: variant canine IgG-B Fc polypeptide 0YW (Gln83Tyr, Asn208Trp) (protein, not shown: small tags and cut ends)
chain: B1 chain with Q83Y, N208W
B9: variant canine IgG-B Fc polypeptide Y0H (Leu24Tyr, Asn208His) (protein, not shown: small tags and cut ends)
chain: B1 chain with L24Y, N208H
B10: variant canine IgG-B Fc polypeptide YYW (Leu24Tyr, Gln83Tyr, Asn208Trp) (protein, not shown: small tags and cut ends)
chain: B1 chain with L24Y, Q83Y, N208W
B11: variant canine IgG-B Fc polypeptide Y0W (Leu24Tyr, Asn208Trp) (protein, not shown: small tags and cut ends)
chain: B1 chain with L24Y, N208W
B12: variant canine IgG-B Fc polypeptide Y0Y (Leu24Tyr, Asn208Tyr) (protein, not shown: small tags and cut ends)
chain: B1 chain with L24Y, N208Y
B13: variant canine IgG-B Fc polypeptide YYF (Leu24Tyr, Gln83Tyr, Asn208Phe) (protein, not shown: small tags and cut ends)
chain: B1 chain with L24Y, Q83Y, N208F
B14: variant canine IgG-B Fc polypeptide 0YR (Gln83Tyr, Asn208Arg) (protein, not shown: small tags and cut ends)
chain: B1 chain with Q83Y, N208R
B15: variant canine IgG-B Fc polypeptide Y0F (Leu24Tyr, Asn208Phe) (protein, not shown: small tags and cut ends)
chain: B1 chain with L24Y, N208F
B16: variant canine IgG-B Fc polypeptide YYY (Leu24Tyr, Gln83Tyr, Asn208Tyr) (protein, not shown: small tags and cut ends)
chain: B1 chain with L24Y, Q83Y, N208Y
B17: variant canine IgG-B Fc polypeptide 0YH (Gln83Tyr, Asn208His) (protein, not shown: small tags and cut ends)
chain: B1 chain with Q83Y, N208H
B18: variant canine IgG-B Fc polypeptide L(24)M (protein, not shown: small tags and cut ends)
chain: B1 chain with L24M
B19: variant canine IgG-B Fc polypeptide L(24)F (protein, not shown: small tags and cut ends)
chain: B1 chain with L24F
B20: variant canine IgG-B Fc polypeptide L(24)Y (protein, not shown: small tags and cut ends)
chain: B1 chain with L24Y
B21: caninized anti-canine IL31 clone M14 antibody with Y0Y variant canine IgG-B Fc polypeptide (antibody)
heavy: EVQLVESGPSLVKPGGSLRLTCSVTGDSITSGYWNWIRKFPGNKLEYMGYISYSGITDYNPSLKSRITISRDTSKNQYYLQLNSVTTEDTATYYCARYGNYGYAMDYWGQGTLVTVSSASTTAPSVFPLAPSCGSTSGSTVALACLVSGYFPEPVTVSWNSGSLTSGVHTFPSVLQSSGLYSLSSMVTVPSSRWPSETFTCNVAHPASKTKVDKPVPKRENGRVPRPPDCPKCPAPEMLGGPSVFIFPPKPKDTLYIARTPEVTCVVVDLDPEDPEVQISWFVDGKQMQTAKTQPREEQFNGTYRVVSVLPIGHQDWLKGKQFTCKVNNKALPSPIERTISKARGQAHQPSVYVLPPSREELSKNTVSLTCLIKDFFPPDIDVEWQSNGQQEPESKYRTTPPQLDEDGSYFLYSKLSVDKSRWQRGDTFICAVMHEALHYHYTQESLSHSPGK
light: DIVMTQSPASLSVSLGQRATISCRASESVDTYGNSFMHWYQQKPGQSPKLLIYRASNLESGIPARFGGSGSGTDFTLTIDPVQADDVATYYCQQSYEDPWTFGGGTKLEIKRNDAQPAVYLFQPSPDQLHTGSASVVCLLNSFYPKDINVKWKVDGVIQDTGIQESVTEQDKDSTYSLSSTLTMSSTEYLSHELYSCEITHKSLPSTLIKSFQRSECQRVD
B22: variant canine IgG-B Fc polypeptide L(24)S (protein, not shown: small tags and cut ends)
chain: B1 chain with L24S
B23: caninized anti-canine IL31 clone M14 antibody with wild-type canine IgG-B Fc polypeptide (antibody)
heavy: B21 heavy with Y256L, Y440N
light: B21 light
B24: caninized anti-canine IL31 clone M14 antibody with YYY variant canine IgG-B Fc polypeptide (antibody)
heavy: B21 heavy with Q315Y
light: B21 light
B25: caninized anti-canine IL31 clone M14 antibody with YTE variant canine IgG-B Fc polypeptide (antibody)
heavy: B21 heavy with A258T, T260E, Y440N
light: B21 light

These binders were tested against canine FcRn/B2M protein complex (canine FcRn ECD with C-terminal poly-His tag and canine Beta-2-Microglobulin) (canine) (assay: SPR Biacore 8K, pH 6.0, 25 C; Fc captured by SASA tag on BSA chip, FcRn/B2M 400 nM as analyte).
Sequence of canine FcRn/B2M protein complex (canine FcRn ECD with C-terminal poly-His tag and canine Beta-2-Microglobulin) (canine) (chain, as listed by the source limits assumed, form in doubt, chain 1 of 2): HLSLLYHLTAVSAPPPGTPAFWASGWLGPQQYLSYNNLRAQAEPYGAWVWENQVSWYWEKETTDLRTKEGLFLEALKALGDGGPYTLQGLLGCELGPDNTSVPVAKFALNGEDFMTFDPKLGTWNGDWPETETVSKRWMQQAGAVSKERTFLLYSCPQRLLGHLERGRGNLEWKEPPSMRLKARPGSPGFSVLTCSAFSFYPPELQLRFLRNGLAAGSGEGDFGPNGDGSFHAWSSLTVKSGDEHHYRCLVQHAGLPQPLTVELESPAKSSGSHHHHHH
Sequence of canine FcRn/B2M protein complex (canine FcRn ECD with C-terminal poly-His tag and canine Beta-2-Microglobulin) (canine) (b2m, as listed by the source limits assumed, form in doubt, chain 2 of 2): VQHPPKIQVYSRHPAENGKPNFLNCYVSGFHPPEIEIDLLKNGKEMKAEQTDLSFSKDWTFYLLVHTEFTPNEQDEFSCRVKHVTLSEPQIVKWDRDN

Row | Kd | koff | kon | Binder
1 | 102 nM | 0.0856 s⁻¹ | 838000 M⁻¹ s⁻¹ | B1
2 | 2.03 nM | 0.00086 s⁻¹ | 425000 M⁻¹ s⁻¹ | B2
3 | 8.64 nM | 0.00295 s⁻¹ | 341000 M⁻¹ s⁻¹ | B3
4 | 1.7 nM | 0.000612 s⁻¹ | 360000 M⁻¹ s⁻¹ | B4
5 | 1.84 nM | 0.000638 s⁻¹ | 347000 M⁻¹ s⁻¹ | B5
6 | 31 nM | 0.0205 s⁻¹ | 662000 M⁻¹ s⁻¹ | B6
7 | 3.1 nM | 0.00118 s⁻¹ | 380000 M⁻¹ s⁻¹ | B7
8 | 6.1 nM | 0.00213 s⁻¹ | 348000 M⁻¹ s⁻¹ | B8
9 | 8.11 nM | 0.00271 s⁻¹ | 334000 M⁻¹ s⁻¹ | B9
10 | 1.93 nM | 0.000496 s⁻¹ | 256000 M⁻¹ s⁻¹ | B10
11 | 3.72 nM | 0.000929 s⁻¹ | 250000 M⁻¹ s⁻¹ | B11
12 | 0.49 nM | 0.00014 s⁻¹ | 286000 M⁻¹ s⁻¹ | B12
13 | – | – | 271000 M⁻¹ s⁻¹ | B13
14 | 9.45 nM | 0.00655 s⁻¹ | 693000 M⁻¹ s⁻¹ | B14
15 | 0.787 nM | 0.000221 s⁻¹ | 281000 M⁻¹ s⁻¹ | B15
16 | – | – | 262000 M⁻¹ s⁻¹ | B16
17 | 11.8 nM | 0.00791 s⁻¹ | 673000 M⁻¹ s⁻¹ | B17

These binders were tested against canine FcRn/B2M protein complex (canine FcRn ECD with C-terminal poly-His tag and canine Beta-2-Microglobulin) (canine) (assay: SPR Biacore T200 steady state, pH 6.0, 25 C; Fc on CM5 chip, FcRn/B2M 12.5-200 nM).

Row | Kd | Binder
18 | 406 nM | B18
19 | 1250 nM | B1
20 | 367 nM | B19
21 | 86.2 nM | B6
22 | 113 nM | B20

The binders below were run against canine FcRn/B2M protein complex (canine FcRn ECD with C-terminal poly-His tag and canine Beta-2-Microglobulin) (canine) (assay: SPR Biacore T200, pH 6.0; biotinylated FcRn/B2M captured on streptavidin, antibody 2.5-160 nM as analyte, kinetic fit).

Row | Kd | koff | kon | Binder
23 | 15.6 nM | 0.00262 s⁻¹ | 168000 M⁻¹ s⁻¹ | B21

These binders were tested against canine FcRn/B2M protein complex (canine FcRn ECD with C-terminal poly-His tag and canine Beta-2-Microglobulin) (canine) (assay: SPR Biacore T200, pH 6.0; biotinylated FcRn/B2M immobilized, Fc as analyte).

Row | koff | Binder
24 | 0.126 s⁻¹ | B18
25 | 0.122 s⁻¹ | B1
26 | 0.0631 s⁻¹ and 0.0847 s⁻¹ | B19
27 | 0.241 s⁻¹ | B22
28 | 0.0138 s⁻¹ | B20

What follows are binders tested against canine FcRn/B2M protein complex (canine FcRn ECD with C-terminal poly-His tag and canine Beta-2-Microglobulin) (canine) (assay: SPR Biacore T200, pH 6.0; biotinylated FcRn/B2M captured on streptavidin, antibody 18.75-1200 nM, steady state analysis).

Row | Kd | Binder
29 | 410 nM | B23

The binders below were run against canine FcRn/B2M protein complex (canine FcRn ECD with C-terminal poly-His tag and canine Beta-2-Microglobulin) (canine) (assay: SPR Biacore T200, pH 6.0; biotinylated FcRn/B2M captured on streptavidin, antibody 1.5625-100 nM as analyte, kinetic fit).

Row | Kd | koff | kon | Binder
30 | 3.84 nM | 0.000869 s⁻¹ | 227000 M⁻¹ s⁻¹ | B24

These binders were tested against canine FcRn/B2M protein complex (canine FcRn ECD with C-terminal poly-His tag and canine Beta-2-Microglobulin) (canine) (assay: SPR Biacore 8K, pH 6.0, 25 C; Fc captured by SASA tag on BSA chip, FcRn/B2M 400 nM as analyte; dissociation exceeded the detection limit).

Row | Kd | koff | Binder
31 | 0.000602 nM | 1.63e-07 s⁻¹ | B13
32 | 0.000713 nM | 1.87e-07 s⁻¹ | B16

Each binder was assayed against canine FcRn/B2M protein complex (canine FcRn ECD with C-terminal poly-His tag and canine Beta-2-Microglobulin) (canine) (assay: SPR Biacore T200, pH 6.0; biotinylated FcRn/B2M captured on streptavidin, antibody 12.5-800 nM, steady state analysis).

Row | Kd | Binder
33 | 231 nM | B25
